Reference: patent US20170015742A1 (published 2017)

Legend:
[1] = biological target: recombinant human VEGF165 (human, UniProt P15692 207-395); experiment: cell-based or functional assay
[2] = biological target: recombinant human PDGF-BB (human, UniProt P01127 82-190); experiment: cell-based or functional assay
Chain of recombinant human PDGF-BB (P01127 82-190 limits assumed): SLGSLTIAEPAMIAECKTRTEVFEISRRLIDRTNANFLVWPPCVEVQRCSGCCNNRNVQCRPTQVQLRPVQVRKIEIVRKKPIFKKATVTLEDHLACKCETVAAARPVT

Chain of recombinant human VEGF165 (P15692 other isoform, or with tags, fused parts or gaps limits assumed): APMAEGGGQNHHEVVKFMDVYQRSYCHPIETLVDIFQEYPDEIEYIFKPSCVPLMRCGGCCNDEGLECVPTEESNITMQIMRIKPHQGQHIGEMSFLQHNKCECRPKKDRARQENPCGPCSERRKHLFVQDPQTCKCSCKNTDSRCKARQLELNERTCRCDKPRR

B1: 1B10.1_GS_3E2.1 (bispecific antibody, human IgG1, kappa, L234A L235A)
heavy: EVQLVESGGGLVQPGGSLRLSCAASGFSFSKYDMAWFRQAPGKGLEWVASITTSGVGTYYRDSVKGRFTVSRDNAKSTLYLQMNSLRAEDTAVYYCARGYGAMDAWGQGTTVTVSSGGGGSGGGGSEVQLVQSGAEVKKPGSSVKVSCKASGYTFTESYMYWVKQAPGQGLELIGRIDPEDGSTDYVEKFKNKATLTADKSTSTAYMELSSLRSEDTAVYFCARFGARSYFYPMDAWGQGTTVTVSSASTKGPSVFPLAPSSKSTSGGTAALGCLVKDYFPEPVTVSWNSGALTSGVHTFPAVLQSSGLYSLSSVVTVPSSSLGTQTYICNVNHKPSNTKVDKKVEPKSCDKTHTCPPCPAPEAAGGPSVFLFPPKPKDTLMISRTPEVTCVVVDVSHEDPEVKFNWYVDGVEVHNAKTKPREEQYNSTYRVVSVLTVLHQDWLNGKEYKCKVSNKALPAPIEKTISKAKGQPREPQVYTLPPSREEMTKNQVSLTCLVKGFYPSDIAVEWESNGQPENNYKTTPPVLDSDGSFFLYSKLTVDKSRWQQGNVFSCSVMHEALHNAYTQKSLSLSPGK
light: DIQMTQSPSSLSASVGDRVTITCKASQDIDDYLSWYQQKPGKSPKLVIYAATRLADGVPSRFSGSGSGTDYTLTISSLQPEDFATYYCLQSSSTPWTFGGGTKVEIKGGSGGGGSGGETVLTQSPATLSLSPGERATLSCRASESVSTLMHWYQQKPGQQPRLLIYGASNLESGVPARFSGSGSGTDFTLTISSLEPEDFAVYFCQQSWNDPWTFGGGTKVEIKRTVAAPSVFIFPPSDEQLKSGTASVVCLLNNFYPREAKVQWKVDNALQSGNSQESVTEQDSKDSTYSLSSTLTLSKADYEKHKVYACEVTHQGLSSPVTKSFNRGEC
Potency IC50 (nM) HMVEC-d hVEGF165 [1]: 0.084 nM
Potency IC50 (nM) NIH-3T3 hPDGF-BB [2]: 1.54 nM

B2: 1E3.4_GS_CL-33675 (bispecific antibody, human IgG1, kappa, L234A L235A)
heavy: EIQLVQSGSELKKPGASVKVSCKASGYPFTNSGMYWVKQAPGQGLEYMGWINTEAGKPTYADDFKGRFVFSLDTSVSTAYLQISSLKAEDTAVYFCARWGYISDNSYGWFDYWGQGTLVTVSSGGGGSGGGGSEVTLRESGPALVKPTQTLTLTCTFSGFSLSTYGMGVGWIRQPPGKALEWLANIWWDDDKYYNPSLKNRLTISKDTSKNQVVLTMTNMDPVDTATYYCARIESSGPKYSFDYWGQGTMVTVSSASTKGPSVFPLAPSSKSTSGGTAALGCLVKDYFPEPVTVSWNSGALTSGVHTFPAVLQSSGLYSLSSVVTVPSSSLGTQTYICNVNHKPSNTKVDKKVEPKSCDKTHTCPPCPAPEAAGGPSVFLFPPKPKDTLMISRTPEVTCVVVDVSHEDPEVKFNWYVDGVEVHNAKTKPREEQYNSTYRVVSVLTVLHQDWLNGKEYKCKVSNKALPAPIEKTISKAKGQPREPQVYTLPPSREEMTKNQVSLTCLVKGFYPSDIAVEWESNGQPENNYKTTPPVLDSDGSFFLYSKLTVDKSRWQQGNVFSCSVMHEALHNAYTQKSLSLSPGK
light: ATQLTQSPSSLSASVGDRVTISCRASEGVYSYMHWYQQKPGKQPKLLIYKASNLASGVPSRFSGSGSGTDFTLTISSLQPEDFATYFCHQNWNDPLTFGQGTKLEIKGGSGGGGSGGEIVLTQSPGTLSLSPGERATLSCRASSGSIWYSFVSWYQQKPGQAPRLLIYADDQRASGIPDRFSGSGSGTDFTLTISRLEPEDFAVYYCQSYGINIDVVFGGGTKVEIKRTVAAPSVFIFPPSDEQLKSGTASVVCLLNNFYPREAKVQWKVDNALQSGNSQESVTEQDSKDSTYSLSSTLTLSKADYEKHKVYACEVTHQGLSSPVTKSFNRGEC
Potency IC50 (nM) HMVEC-d hVEGF165 [1]: 0.067 nM
Potency IC50 (nM) NIH-3T3 hPDGF-BB [2]: 0.037 nM
